Results published in patent publication US20090155873A1, “BIOFUEL PRODUCTION” (BIO ARCHITECTURE LAB, INC., priority 2007, published 2009).
One block for each molecule: values may come before it.

What was measured:
[1] = TBA assay for secreted alginate lyase; assay type: cell-based; conditions: BL21 cells, LB+2% alginate+0.1 mM IPTG, overnight culture media, FIG. 47
Description: The Vs24254 (SEQ ID NO: 32) region of Vibro spendidus encodes a functional external alginate lyase. BL21 cells expressing Vs24254 from the pET28 vector were capable of breaking down alginate in the growth medium. […] This assay was performed by spinning down an overnight culture grown on the above mentioned media. The media was then mixed in a 1:1 ratio with 0.8% thiobarbituric acid (TBA), heated for 10 min at 99 degrees Celsius, and assayed for pink coloration. […] Wildtype E. coli cells not expressing any recombinant proteins show the same coloration as the negative control Vs24259 (data not shown).

[2] = NADH Production Assay (oxidation of 4-octanol); assay type: biochemical; conditions: NAD+, 30° C., FIG. 30A
Description: Various secondary alcohol dehydrogenases (2ADHs) were isolated from Pseudomonas putida KT2440, Pseudomonas fluorescens Pf-5, and Klebsiella pneumoniae MGH 78578. All vectors were transformed in BL21(DE3) competent cells and expression of the genes encoding the proteins of interest was induced with IPTG (via the T7 promoter). The cells were lysed, proteins were extracted and then purified on Ni-NTA columns. Final protein concentration in the Ni-NTA eluate was diluted to 0.15 mg/mL prior to assays.
[…] consumption and production assays were performed using a THERMOmax microplate reader in the kinetic mode, monitoring the NADPH absorbance peak at 340 nm until the reaction reached equilibrium. […] These reaction conditions are found in Table 4 below.

[3] = Kinetic testing of oxidation and reduction reactions with 2ADH-16; assay type: biochemical; conditions: 0.04 mg/mL enzyme, pH 6.5(red) or 9.0(ox), 25 C, FIGS. 35 and 36
Description: Similar to above, kinetic testing for both oxidation and reduction reactions was performed on various substrates using 2ADH-16. The conditions for these studies were as follows: 0.04 mg/mL enzyme, 0.25 mg/mL cofactor, 20 mM Tris HCl Buffer pH 6.5(red) or 9.0(ox), T=25 C, 100 uL total volume was used.

B1: Vs24259: putative protein of Vibrio splendidus similar to an alginate lyase, SEQ ID NO:34; negative control (protein, listed as Vibrio splendidus)
chain: MKQITLKTLLASSILLAVGCASTSTPTADFPNNKETGEALLTPVAVSASSHDGNGPDRLVDQDLTTRWSSAGDGEWATLDYGSVQEFDAVQASFSKGNQRQSKFDIQVSVDGESWTTVLENQLSSGKAIGLERFQFEPVVQARYVRYVGHGNTKNGWNSVTGLAAVNCSINACPASHIITSDVVAAEAVIIAEMKAAEKARKDARKDLRSGNFGVAAVYPCETTVECDTRSALPVPTGLPATPVAGNSPSENFDMTHWYLSQPFDHDKNGKPDDVSEWNLANGYQHPEIFYTADDGGLVFKAYVKGVRTSKNTKYARTELREMMRRGDQSISTKGVNKNNWVFSSAPESDLESAAGIDGVLEATLKIDHATTTGNANEVGRFIIGQIHDQNDEPIRLYYRKLPNQETGAVYFAHESQDATKEDFYPLVGDMTAEVGDDGIALGEVFSYRIDVKGNTMTVTLIREGKDDVVQVVDMSNSGYDAGGKYMYFKAGVYNQNISGDLDDYSQATFYQLDVSHDQYKK
TBA assay result (cleavage of alginate in growth medium) [1]: little or no cleavage of the alginate polymer has occurred

TBA assay result (cleavage of alginate in growth medium) [1]: positive TBA assay result of pink color
B2: Vs24254: functional external alginate lyase of Vibrio splendidus, SEQ ID NO:32 (protein, listed as Vibrio splendidus)
chain: MNKPIFVVVLASLTYGCGGSSSSDSSDPSDTNNSGASYGVVAPYDIAKYQNILSSSDLQVSDPNGEEGNKTSEVKDGNFDGYVSDYFYADEETENLIFKMANYKMRSEVREGENFDINEAGVRRSLHAEISLPDIEHVMASSPADHDEVTVLQIHNKGTDESGTGYIPHPLLRVVWEQERDGLTGHYWAVMKNNAIDCSSAADSSDCYATSYNRYDLGEADLDNFTKFDLSVYENTLSIKVNDEVKVDEDITYWQHLLSYFKAGIYNQFENGEATAHFQALRYTTTQVNGSNDWDINDWKLTIPASKDTWYGSGGDSAAELEPERCESSKDLLANDSDVYDSDIGLSYFNTDEGRVHFRADMGYGTSTENSSYIRSELRELYQSSVQPDCSTSDEDTSWYLDDTRTNATSHELTASLRIEDYPNINNQDPKVVLGQIHGWKINQALVKLLWEGESKPVRVILNSDFERNNQDCNHCDPFSVELGTYSASEEWRYTIRANQDGIYLATHDLDGTNTVSHLIPWGQDYTDKDGDTVSLTSDWTSTDIAFYFKAGIYPQFKPDSDYAGEVFDVSFSSLRAEHN

B3: 2ADH-2: secondary alcohol dehydrogenase isolated from Pseudomonas putida KT2440, SEQ ID NO:112 (protein)
chain: MSMTFSGQVALVTGAGAGIGRATALAFAHEGMKVVVADLDPVGGEATVAQIHAAGGEALFIACDVTRDAEVRQLHERLMAAYGRLDYAFNNAGIEIEQHRLAEGSEAEFDAIMGVNVKGVWLCMKYQLPLLLAQGGGAIVNTASVAGLGAAPKMSIYSASKHAVIGLTKSAAIEYAKKGIRVNAVCPAVIDTDMFRRAYQADPRKAEFAAAMHPVGRIGKVEEIASAVLYLCSDGAAFTTGHCLTVDGGATAI
modifications: Pseudomonas putida KT2440
oxidation of 4-octanol measured by NADH production [2]: catalyzes the oxidation of 4-octanol in the presence of NAD+

B4: 2ADH-16: secondary alcohol dehydrogenase isolated from Klebsiella pneumoniae subsp. pneumoniae MGH 78578, SEQ ID NO:138 (protein)
chain: MTAFHNKSVLVLGGSRGIGAAIVRRFVADGASVVFSYSGSPEAAERLAAETGSTAVQADSADRDAVISLVRDSGPLDVLVVNAGIALFGDALEQDSDAIDRLFHINIHAPYHASVEAARRMPEGGRIIVIGSVNGDRMPLPGMAAYALSKSALQGLARGLARDFGPRGITVNVVQPGPIDTDANPENGPMKELMHSFMAIKRHGRPEEVAGMVAWLAGPEASFVTGAMHTIDGAFGA
modifications: Klebsiella pneumoniae subsp. pneumoniae MGH78578
oxidation and reduction of various substrates [3]: capable of catalyzing both the oxidation and reduction of a wide variety of substrates
